According to the Human Domainome abundance scans (Beltran et al. 2025):

B1: Heterogeneous nuclear ribonucleoprotein U-like protein 2, residues 1 to 40; numbered along this chain, Q1KMD3 (parent)
chain: MEVKRLKVTELRSELQRRGLDSRGLKVDLAQRLQEALDAE
B2: Membrane-associated guanylate kinase, WW and PDZ domain-containing protein 3, residues 287 to 329; numbered along this chain, Q5TCQ9 (parent)
chain: MRDETLEPLPKNWEMAYTDTGMIYFIDHNTKTTTWLDPRLCKK

Variants of: B1
Assay: abundance fitness (aPCA) (normalised: wild type 0, dead -1); higher = more abundant; growth selection in yeast, the domain comes from the species named
Conditions: Homo sapiens

Abundance fitness: each site, then its substitutions
A30: P -0.718; Q 0.106; C -0.006; T -0.058; S -0.165; W -0.236; G -0.361; R 0.046; L -0.21; F -0.217; V 0.011; D -0.217; N -0.422
A39: S -0.06; I -0.497; V -0.132; L -0.118; F -0.159; G -0.036; N 0.153; K -0.046; D -0.185; Y -0.367; H -0.026; R 0.017; T -0.088; Q 0.005; P -0.272; W -0.263
A36: R -0.213; C -0.048; K -0.354; M -0.397; P -0.407; G -0.366; T -0.196; Q -0.211; D -0.371; I -0.314; E -0.213; N -0.294; S -0.138; Y -0.231; V -0.104; W -0.422; L -0.622; F -0.278
D28: R -0.342; Q -0.139; V -0.119; N -0.248; W -1.35; S -0.407; P -0.681; Y -0.715
Q31: L 0.009; P -0.121; E 0.141; V -0.003; G -0.055; M -0.041; C -0.016; S 0.058; K 0.112; H -0.418; A 0.032; T 0.085; I 0.012; W -0.176; N 0.252; F -0.197
E40: D -0.122; L -0.849; C -0.017; R -0.381; P -0.543; I -0.641; S -0.311; Y -0.518; T -0.405; W -1.14; V -0.529; G -0.224; N -0.253; H -0.545
E35: G -0.068; N -0.036; M 0.009; C -0.052; T 0.005; P -0.339; R -0.047; F -0.21; I -0.167; Y -0.294; S -0.018; K 0.058; V -0.045; L -0.168; H -0.055; D 0.036
L33: W -0.626; H -0.467; C -0.403; F -0.733; T -0.349; I -0.843; K -0.164; D -0.239; S -0.243; R -0.368; E -0.085; M -0.239; Q -0.269; P -0.06; N -0.384; G -0.189
L29: D -0.104; N -0.352; F -0.603; T -0.083; I -0.189; Y -0.486; C -0.137; S -0.201; E -0.174; G -0.188; K -0.31; Q -0.285; W -0.853; P -0.299; R -0.356; H -0.346; A -0.212
R32: V -0.643; Y -0.191; E -0.221; D -0.076; I -1.08; S -0.371; W -1; A -0.394; N -0.395; Q -0.262; H -0.399; F -1.02; P -0.402; C -0.441; L -0.854; T -0.405; M -0.567; G -0.339
L37: R -0.223; E -0.157; G -0.319; V -0.078; P -0.282; C -0.276; A -0.337; W -0.266; D -0.24; M 0.001; K -0.199; F -0.112; T -0.179; S -0.346; I 0.223; N -0.381; H -0.032; Q -0.113
D38: N 0.113; A -0.198; C -0.157; L -0.284; T -0.027; M -0.169; W -0.36; E -0.013; R -0.217; Q -0.244; S -0.19; H -0.531; Y -0.243; V -0.231; I -0.629; F -0.33; G -0.281; K -0.185; P -0.402
Q34: R -0.308; N -0.119; W -0.624; A -0.205; V -0.413; K -0.18; D -0.256; P -0.396; T -0.145; F -0.722; M -0.283; Y -0.515; C -0.43; I -0.432; S -0.171; E -0.099; L -0.415; G -0.236

Variants of: B2
Assay: as above
Conditions: Homo sapiens

Abundance fitness, by site and new letter:
E4: S -0.043; M -0.11; G -0.113; D -0.115; F -0.097; K -0.107; W -0.515; H -0.174; R -0.091; A -0.09; Y -0.319; L -0.09; C -0.062; Q -0.04; P -0.095
L6: V -0.024; W -0.108; I 0.141; M -0.067; K -0.128; H -0.249; Y -0.156; R -0.026; S 0.034; F -0.13; Q 0.103; E -0.029; P -0.068; T -0.018; G 0.001; D -0.086; A 0.016
P8: D -0.087; T -0.162; K -0.069; W -0.367; Y -0.395; A -0.065; R -0.112; M -0.255; V -0.187; Q -0.15; C -0.332; E -0.078; S -0.325; G -0.13
E7: I -0.218; D -0.113; Q -0.04; L -0.115; F -0.327; K -0.101; S -0.049; A -0.076; P 0.014; N -0.238; M -0.145; G 0.013; C -0.324; V -0.09; R -0.084; W -0.24
M1: L -0.074; R -0.056; G -0.057; D -0.026; Q -0.253; Y -0.1; T -0.06; S -0.064; V -0.089; K 0.025; E 0.001; N -0.213; I -0.152
L9: C -0.721; K -0.683; G -0.681; A -0.691; E -0.566
R2: N -0.021; G -0.054; V -0.091; K -0.045; W -0.226; C -0.046; L -0.072; E -0.05; I -0.122; A -0.088; M -0.015; S -0.164; F -0.171; T -0.002
T5: E -0.046; M 0.251; C -0.123; D -0.02; W -0.303; K 0.072; H -0.059; P -0.023; V -0.064; A -0.04; F -0.384; Q 0.012; G -0.05; N 0.125; R -0.064; Y -0.19
D3: W -0.336; S -0.067; K -0.046; T -0.12; G -0.065; A -0.089; N -0.148; C -0.164; E -0.039; M -0.188; L -0.175; F -0.161; I -0.213; Y -0.367; P -0.072; Q -0.074; R -0.127
